In patent publication US20080274993:

System: DSCR1-FLAG (human Down syndrome critical region 1, C-terminal FLAG epitope)
Sequence (chain, as listed by the source): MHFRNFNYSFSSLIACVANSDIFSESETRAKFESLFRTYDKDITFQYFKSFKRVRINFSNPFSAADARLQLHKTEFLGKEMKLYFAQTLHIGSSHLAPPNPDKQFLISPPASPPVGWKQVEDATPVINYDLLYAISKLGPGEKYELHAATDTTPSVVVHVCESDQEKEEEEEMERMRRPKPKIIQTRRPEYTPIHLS

## calcineurin A (CnA)
  NFATc1 phosphorylation status (Western blot of extracts of activated HUVECs): a shift from the dephosphorylated form of NFATc1 to the phosphorylated form in response to DSCR1
